Results reported in publication PMC5449630.
Read-outs that look alike come from different tables or passages of the source.

B1: FAM-20p/36c 5' overhang duplex (dsDNA)
DNA 1: TAGCACCTACCGATTGTATG
DNA 2: CGACACAAAAACGTATCATACAATCGGTAGGTGCTA
modifications: 3'-phosphate on strand 1; 5'-phosphate on strand 2
B2: FAM-20p/20c blunt duplex (dsDNA)
DNA 1: TAGCACCTACCGATTGTATG
DNA 2: CATACAATCGGTAGGTGCTA
modifications: 3'-phosphate on strand 1; 5'-phosphate on strand 2

Assays:
[1] = molecular target: T1, mPNKP D170A (Mus musculus (murine), UniProt Q9JLV6 1-522, D170A); experiment: EMSA
T1 sequence (Q9JLV6 whole entry D170A): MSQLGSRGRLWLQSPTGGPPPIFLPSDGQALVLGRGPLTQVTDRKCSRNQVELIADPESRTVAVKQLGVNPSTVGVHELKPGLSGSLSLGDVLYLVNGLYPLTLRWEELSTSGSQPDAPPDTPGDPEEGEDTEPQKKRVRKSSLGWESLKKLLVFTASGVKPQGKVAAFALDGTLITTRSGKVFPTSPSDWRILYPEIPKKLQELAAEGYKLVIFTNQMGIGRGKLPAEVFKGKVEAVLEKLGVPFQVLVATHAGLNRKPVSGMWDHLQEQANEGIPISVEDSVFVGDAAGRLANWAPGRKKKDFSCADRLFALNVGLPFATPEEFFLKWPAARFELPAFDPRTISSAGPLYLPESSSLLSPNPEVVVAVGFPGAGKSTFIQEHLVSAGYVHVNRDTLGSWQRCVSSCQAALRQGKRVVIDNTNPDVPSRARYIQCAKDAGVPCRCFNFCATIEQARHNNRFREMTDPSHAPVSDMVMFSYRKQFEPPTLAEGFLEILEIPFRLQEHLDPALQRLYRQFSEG

[2] = molecular target: T1, mPNKP D170A; experiment: EMSA; remark: listed apart in the source

Binder	binding result [1]	binding result [2]
B1	binds	
B2	binds	
TAGCACCTACCGATTGTATG (ssDNA, 3'-phosphate) [FAM-20p ssDNA]		binds
